Assay results: patent publication US20240336672A1

How the values were obtained:
Details in all cases: remark: other sources report otherwise
[1] = target: SARS-CoV-2 delta plus variant RBD (SARS-CoV-2); assay: ELISA; set-up: unit not given beside the values
[2] = target: T1, SARS-CoV-2 delta variant B.1.617.2/3 RBD domain (SARS-CoV-2); assay: ELISA; set-up: unit not given beside the values
[3] = target: T2, SARS-CoV-2 kappa variant B.1.617.1/3 RBD domain (SARS-CoV-2); assay: ELISA; set-up: unit not given beside the values
[4] = target: SARS-CoV-2 RBD (P.1) domain (SARS-CoV-2); assay: ELISA; set-up: unit not given beside the values
[5] = target: SARS-CoV-2 RBD (B.1.1.7) domain (SARS-CoV-2); assay: ELISA; set-up: unit not given beside the values
[6] = target: SARS-CoV-2 RBD (B.1.351) domain (SARS-CoV-2); assay: ELISA; set-up: unit not given beside the values
[7] = target: SARS-CoV-2 delta plus variant RBD (SARS-CoV-2); assay: RBD/ACE2 blocking ELISA
[8] = target: T1, SARS-CoV-2 delta variant B.1.617.2/3 …; assay: RBD/ACE2 blocking ELISA
[9] = target: T2, SARS-CoV-2 kappa variant B.1.617.1/3 …; assay: RBD/ACE2 blocking ELISA
[10] = target: SARS-CoV-2 RBD (P.1) domain (SARS-CoV-2); assay: RBD/ACE2 blocking ELISA
[11] = target: SARS-CoV-2 RBD (B.1.1.7) domain (SARS-CoV-2); assay: RBD/ACE2 blocking ELISA
[12] = target: SARS-CoV-2 RBD (B.1.351) domain (SARS-CoV-2); assay: RBD/ACE2 blocking ELISA
[13] = target: T1, SARS-CoV-2 delta variant B.1.617.2/3 …; assay: ELISA
[14] = target: T2, SARS-CoV-2 kappa variant B.1.617.1/3 …; assay: ELISA
[15] = target: SARS-CoV-2 RBD (P.1) domain (SARS-CoV-2); assay: ELISA
[16] = target: SARS-CoV-2 RBD (B.1.1.7) domain (SARS-CoV-2); assay: ELISA

B1: CT-P59 (parental IgG1 version) (antibody, V domains shown)
VH: QITLKESGPTLVKPTQTLTLTCSFSGFSLSTSGVGVGWIRQPPGKALEWLALIDWDDNKYHTTSLKTRLTISKDTSKNQVVLTMTNMDPVDTATYYCARIPGFLRYRNRYYYYGMDVWGQGTTVTVSS
VL: ELVLTQPPSVSAAPGQKVTISCSGSSSNIGNNYVSWYQQLPGTAPKLLIYDNNKRPSGIPDRFSGSKSGTSATLGITGLQTGDEADYYCGTWDSSLSAGVFGGGTELTVL
AUC [1]: 3 | AUC [2]: 3 | AUC [3]: 3 | AUC [4]: 4 | AUC [5]: 3 | AUC [6]: 3 | % binding inhibition [7]: 91% | % binding inhibition [8]: 91% | % binding inhibition [9]: 94% | % binding inhibition [10]: 19% | % binding inhibition [11]: 86% | % binding inhibition [12]: 49%

B2: REG (antibody)
heavy chain variable region (VH): B1 VH
light chain variable region (VL): B1 VL
OD405nm [13]: 3.4 | OD405nm [14]: 3.5 | OD405nm [15]: 3.6 | OD405nm [16]: 3.2
